IntAct's records for PubMed 36931259

B1: 14-3-3 protein sigma (Homo sapiens), P31947 (parent)
chain: MERASLIQKAKLAEQAERYEDMAAFMKGAVEKGEELSCEERNLLSVAYKNVVGGQRAAWRVLSSIEQKSNEEGSEEKGPEVREYREKVETELQGVCDTVLGLLDSHLIKEAGDAESRVFYLKMKGDYYRYLAEVATGDDKKRIIDSARSAYQEAMDISKKEMPPTNPIRLGLALNFSVFHYEIANSPEEAISLAKTTFDEAMADLHTLSEDSYKDSTLIMQLLRDNLTLWTADNAGEEGGEAPQEPQS
partner: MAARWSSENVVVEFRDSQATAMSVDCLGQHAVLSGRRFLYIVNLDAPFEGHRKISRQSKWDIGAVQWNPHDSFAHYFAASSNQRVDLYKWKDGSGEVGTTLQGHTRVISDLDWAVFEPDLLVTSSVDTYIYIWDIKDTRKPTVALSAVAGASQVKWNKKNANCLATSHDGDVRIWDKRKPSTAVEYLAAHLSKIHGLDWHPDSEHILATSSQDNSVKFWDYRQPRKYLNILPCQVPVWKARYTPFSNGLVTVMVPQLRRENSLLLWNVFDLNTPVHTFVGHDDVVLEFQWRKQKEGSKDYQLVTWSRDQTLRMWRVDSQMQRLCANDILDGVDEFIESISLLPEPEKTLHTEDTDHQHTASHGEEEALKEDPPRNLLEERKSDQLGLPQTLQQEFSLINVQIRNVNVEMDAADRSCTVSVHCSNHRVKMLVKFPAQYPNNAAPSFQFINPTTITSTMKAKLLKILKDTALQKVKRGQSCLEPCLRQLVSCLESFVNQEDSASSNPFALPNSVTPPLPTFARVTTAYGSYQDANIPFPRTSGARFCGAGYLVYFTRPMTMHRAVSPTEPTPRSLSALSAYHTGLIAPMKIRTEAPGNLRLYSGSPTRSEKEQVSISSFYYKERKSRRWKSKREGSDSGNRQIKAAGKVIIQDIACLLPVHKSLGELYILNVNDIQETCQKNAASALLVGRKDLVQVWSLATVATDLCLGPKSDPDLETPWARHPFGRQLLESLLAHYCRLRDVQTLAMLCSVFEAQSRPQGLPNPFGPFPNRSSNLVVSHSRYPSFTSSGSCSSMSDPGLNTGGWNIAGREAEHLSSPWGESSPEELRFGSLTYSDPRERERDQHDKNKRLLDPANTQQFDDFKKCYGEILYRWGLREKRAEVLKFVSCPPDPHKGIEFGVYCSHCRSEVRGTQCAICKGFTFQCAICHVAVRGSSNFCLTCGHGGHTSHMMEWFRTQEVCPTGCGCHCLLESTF
B2: 14-3-3 protein sigma (Homo sapiens), P31947 (parent)
chain: B1 chain
partner: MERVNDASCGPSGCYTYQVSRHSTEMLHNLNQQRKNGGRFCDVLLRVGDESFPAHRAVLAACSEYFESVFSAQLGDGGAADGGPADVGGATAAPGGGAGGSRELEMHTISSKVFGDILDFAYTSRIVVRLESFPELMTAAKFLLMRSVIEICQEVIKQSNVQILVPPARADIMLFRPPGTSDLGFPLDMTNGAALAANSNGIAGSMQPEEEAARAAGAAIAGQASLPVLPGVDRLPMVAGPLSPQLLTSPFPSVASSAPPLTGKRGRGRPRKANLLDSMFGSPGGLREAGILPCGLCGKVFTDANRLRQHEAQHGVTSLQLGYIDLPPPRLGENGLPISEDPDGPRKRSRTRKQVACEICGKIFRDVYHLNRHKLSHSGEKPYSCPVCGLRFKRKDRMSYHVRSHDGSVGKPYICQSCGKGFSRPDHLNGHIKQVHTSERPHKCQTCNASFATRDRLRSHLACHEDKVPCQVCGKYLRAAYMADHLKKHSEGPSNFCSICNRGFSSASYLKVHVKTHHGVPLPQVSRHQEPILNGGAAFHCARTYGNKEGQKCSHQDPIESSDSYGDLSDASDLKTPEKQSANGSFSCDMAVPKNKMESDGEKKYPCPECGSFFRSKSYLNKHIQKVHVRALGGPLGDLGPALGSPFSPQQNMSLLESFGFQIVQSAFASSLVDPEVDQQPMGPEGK
B3: 14-3-3 protein sigma (Homo sapiens), P31947 (parent)
chain: B1 chain
partner: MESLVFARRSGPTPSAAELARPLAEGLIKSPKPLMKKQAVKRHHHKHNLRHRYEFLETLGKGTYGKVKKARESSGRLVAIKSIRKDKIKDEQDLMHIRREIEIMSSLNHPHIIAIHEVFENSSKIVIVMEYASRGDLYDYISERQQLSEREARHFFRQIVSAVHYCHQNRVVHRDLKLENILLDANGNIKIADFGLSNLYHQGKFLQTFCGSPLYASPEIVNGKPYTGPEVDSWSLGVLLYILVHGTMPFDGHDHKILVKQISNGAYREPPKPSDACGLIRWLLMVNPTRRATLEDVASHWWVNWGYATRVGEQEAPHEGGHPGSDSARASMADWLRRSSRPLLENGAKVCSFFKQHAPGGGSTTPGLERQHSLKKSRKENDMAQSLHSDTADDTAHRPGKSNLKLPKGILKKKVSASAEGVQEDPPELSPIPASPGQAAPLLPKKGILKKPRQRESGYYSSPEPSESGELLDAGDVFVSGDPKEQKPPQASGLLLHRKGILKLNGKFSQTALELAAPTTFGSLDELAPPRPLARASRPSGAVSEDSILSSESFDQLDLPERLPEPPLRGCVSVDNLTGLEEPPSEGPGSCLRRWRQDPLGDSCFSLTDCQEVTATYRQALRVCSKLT
B4: 14-3-3 protein sigma (Homo sapiens), P31947 (parent)
chain: B1 chain
partner: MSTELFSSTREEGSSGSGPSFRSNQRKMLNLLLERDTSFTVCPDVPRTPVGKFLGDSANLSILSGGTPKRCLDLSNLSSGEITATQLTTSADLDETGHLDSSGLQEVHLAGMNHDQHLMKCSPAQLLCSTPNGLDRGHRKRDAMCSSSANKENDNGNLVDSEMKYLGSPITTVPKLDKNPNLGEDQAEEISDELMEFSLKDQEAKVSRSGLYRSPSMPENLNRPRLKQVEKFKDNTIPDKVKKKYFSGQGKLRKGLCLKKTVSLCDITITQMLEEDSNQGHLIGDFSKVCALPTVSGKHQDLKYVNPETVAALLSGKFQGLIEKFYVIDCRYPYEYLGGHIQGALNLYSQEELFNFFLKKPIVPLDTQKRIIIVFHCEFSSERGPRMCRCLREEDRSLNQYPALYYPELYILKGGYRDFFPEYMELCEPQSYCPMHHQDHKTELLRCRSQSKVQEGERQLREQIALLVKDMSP
B5: 14-3-3 protein sigma (Homo sapiens), P31947 (parent)
chain: B1 chain

Variants of: B1
Details: with wdr59_human WDR59, Q6PJI9

Variant	effect of a mutation on the interaction
K49E;R56E;V178D	decreasing interaction strength

Variants of: B2
Details: with patz1_human PATZ1, Q9HBE1

Variant	effect of a mutation on the interaction
K49E;R56E;V178D	decreasing interaction strength

Variants of: B3
Details: with nuak2_human NUAK2, Q9H093

Variant	effect of a mutation on the interaction
K49E;R56E;V178D	decreasing interaction strength

Variants of: B4
Details: with mpip3_human CDC25C

Variant	effect of a mutation on the interaction
K49E;R56E;V178D	decreasing interaction strength

Variants of: B5
Details: with gsk3a_human GSK3A

Variant	effect of a mutation on the interaction
K49D;R56D;V178D	decreasing interaction strength
